The sequences below were run on Escherichia coli TOP10 (assay: shrunken log2 fold change of peptide-encoding DNA abundance (4.5 h post-induction vs induction); higher = less antimicrobial activity (less host growth inhibition)). Settings: time post-induction: 4.5 h; library: site-saturation at positions 5, 18, 19, 20.
For RRIRYRPPRLPRPRPRPTWPPRP, the “shrunken log2 fold change” value was 0.183. RRIRKRPPRLPRPRPRPMMEPRP was tested, and the “shrunken log2 fold change” value was -0.00277. For RRIRVRPPRLPRPRPRPWRVPRP, the “shrunken log2 fold change” value was 0.435. For RRIRFRPPRLPRPRPRPHAKPRP, the “shrunken log2 fold change” value was 0.229. In the case of RRIRERPPRLPRPRPRPSEWPRP, the “shrunken log2 fold change” value is reported as -0.0737. RRIRKRPPRLPRPRPRPMQEPRP was tested, and the “shrunken log2 fold change” value was 0.0391. In the case of RRIRARPPRLPRPRPRPSHGPRP, the “shrunken log2 fold change” value is reported as 0.115. With RRIRSRPPRLPRPRPRPDHKPRP the “shrunken log2 fold change” value was -0.18. For RRIRCRPPRLPRPRPRPVSFPRP, the “shrunken log2 fold change” value was -0.228. In the case of RRIRLRPPRLPRPRPRPMVWPRP, the “shrunken log2 fold change” value is reported as 0.0457. In the case of RRIRKRPPRLPRPRPRPDKGPRP, the “shrunken log2 fold change” value is reported as -0.022. RRIRYRPPRLPRPRPRPTHTPRP was tested, and the “shrunken log2 fold change” value was 0.049. In the case of RRIRQRPPRLPRPRPRPKMPPRP, the “shrunken log2 fold change” value is reported as -0.0283. In the case of RRIRVRPPRLPRPRPRPAREPRP, the “shrunken log2 fold change” value is reported as 0.254. For RRIRKRPPRLPRPRPRPMSQPRP, the “shrunken log2 fold change” value was -0.0623. For RRIRMRPPRLPRPRPRPKDHPRP, the “shrunken log2 fold change” value was 0.458. RRIRYRPPRLPRPRPRPSWLPRP was tested, and the “shrunken log2 fold change” value was -0.78. In the case of RRIRRRPPRLPRPRPRPHTLPRP, the “shrunken log2 fold change” value is reported as -0.182. For RRIRERPPRLPRPRPRPWCAPRP, the “shrunken log2 fold change” value was -0.158. For RRIRMRPPRLPRPRPRPSSRPRP, the “shrunken log2 fold change” value was 0.208. For RRIRARPPRLPRPRPRPGNAPRP, the “shrunken log2 fold change” value was 0.73. For RRIRARPPRLPRPRPRPVGSPRP, the “shrunken log2 fold change” value was 0.383. In the case of RRIRPRPPRLPRPRPRPVNVPRP, the “shrunken log2 fold change” value is reported as -0.326. With RRIRRRPPRLPRPRPRPPKCPRP the “shrunken log2 fold change” value was 0.423. RRIRVRPPRLPRPRPRPHLEPRP was tested, and the “shrunken log2 fold change” value was -0.133. For RRIRWRPPRLPRPRPRPRMGPRP, the “shrunken log2 fold change” value was 0.357. With RRIRWRPPRLPRPRPRPYPFPRP the “shrunken log2 fold change” value was -0.0811. RRIRNRPPRLPRPRPRPMTEPRP was tested, and the “shrunken log2 fold change” value was 0.00748. RRIRARPPRLPRPRPRPTSNPRP was tested, and the “shrunken log2 fold change” value was 0.00789. RRIRWRPPRLPRPRPRPYHIPRP was tested, and the “shrunken log2 fold change” value was -0.96. For RRIRWRPPRLPRPRPRPHGPPRP, the “shrunken log2 fold change” value was 0.0026. For RRIRFRPPRLPRPRPRPPNKPRP, the “shrunken log2 fold change” value was 0.1. RRIRDRPPRLPRPRPRPIEHPRP was tested, and the “shrunken log2 fold change” value was -0.172. In the case of RRIRFRPPRLPRPRPRPEQLPRP, the “shrunken log2 fold change” value is reported as 0.178. With RRIRNRPPRLPRPRPRPFMCPRP the “shrunken log2 fold change” value was -0.202. RRIRDRPPRLPRPRPRPACYPRP was tested, and the “shrunken log2 fold change” value was -0.142. RRIRWRPPRLPRPRPRPENHPRP was tested, and the “shrunken log2 fold change” value was -0.176. RRIRWRPPRLPRPRPRPYRMPRP was tested, and the “shrunken log2 fold change” value was 0.0292. In the case of RRIRSRPPRLPRPRPRPREEPRP, the “shrunken log2 fold change” value is reported as 0.369. For RRIRSRPPRLPRPRPRPSKWPRP, the “shrunken log2 fold change” value was -0.285. For RRIRIRPPRLPRPRPRPRLFPRP, the “shrunken log2 fold change” value was 0.0705. With RRIRERPPRLPRPRPRPRSGPRP the “shrunken log2 fold change” value was -0.049. With RRIRGRPPRLPRPRPRPIPYPRP the “shrunken log2 fold change” value was -0.1. In the case of RRIRSRPPRLPRPRPRPPTWPRP, the “shrunken log2 fold change” value is reported as 0.326. With RRIRPRPPRLPRPRPRPTTEPRP the “shrunken log2 fold change” value was 0.109. With RRIRSRPPRLPRPRPRPWDEPRP the “shrunken log2 fold change” value was -0.0358. With RRIRNRPPRLPRPRPRPPQHPRP the “shrunken log2 fold change” value was 0.149. RRIRARPPRLPRPRPRPCKPPRP was tested, and the “shrunken log2 fold change” value was -0.331. For RRIRNRPPRLPRPRPRPDWRPRP, the “shrunken log2 fold change” value was -0.158. RRIRMRPPRLPRPRPRPIDKPRP was tested, and the “shrunken log2 fold change” value was -0.197. RRIRERPPRLPRPRPRPWRFPRP was tested, and the “shrunken log2 fold change” value was -0.117. In the case of RRIRRRPPRLPRPRPRPDVDPRP, the “shrunken log2 fold change” value is reported as 0.505. RRIRYRPPRLPRPRPRPCVGPRP was tested, and the “shrunken log2 fold change” value was -1.87. In the case of RRIRFRPPRLPRPRPRPRFIPRP, the “shrunken log2 fold change” value is reported as -0.498. For RRIRDRPPRLPRPRPRPVGHPRP, the “shrunken log2 fold change” value was 0.423. In the case of RRIRPRPPRLPRPRPRPCQQPRP, the “shrunken log2 fold change” value is reported as -0.119. In the case of RRIRTRPPRLPRPRPRPMRTPRP, the “shrunken log2 fold change” value is reported as 0.276. In the case of RRIRMRPPRLPRPRPRPAENPRP, the “shrunken log2 fold change” value is reported as 0.084. RRIRPRPPRLPRPRPRPQSWPRP was tested, and the “shrunken log2 fold change” value was -0.134. In the case of RRIRARPPRLPRPRPRPVPDPRP, the “shrunken log2 fold change” value is reported as 0.493. In the case of RRIRYRPPRLPRPRPRPYTRPRP, the “shrunken log2 fold change” value is reported as -1.51. With RRIRTRPPRLPRPRPRPRYCPRP the “shrunken log2 fold change” value was -0.116. RRIRWRPPRLPRPRPRPRNTPRP was tested, and the “shrunken log2 fold change” value was -0.0542. For RRIRRRPPRLPRPRPRPEMWPRP, the “shrunken log2 fold change” value was 1.14. For RRIRLRPPRLPRPRPRPNVNPRP, the “shrunken log2 fold change” value was -0.28. In the case of RRIRMRPPRLPRPRPRPCCEPRP, the “shrunken log2 fold change” value is reported as 0.192. With RRIRSRPPRLPRPRPRPCPPPRP the “shrunken log2 fold change” value was -0.244. RRIRSRPPRLPRPRPRPEYEPRP was tested, and the “shrunken log2 fold change” value was -0.0387. RRIRARPPRLPRPRPRPPDGPRP was tested, and the “shrunken log2 fold change” value was 1.3. With RRIRYRPPRLPRPRPRPTNPPRP the “shrunken log2 fold change” value was -0.165. RRIRWRPPRLPRPRPRPCHLPRP was tested, and the “shrunken log2 fold change” value was -0.211. For RRIRMRPPRLPRPRPRPQMQPRP, the “shrunken log2 fold change” value was 0.108. RRIRPRPPRLPRPRPRPNFTPRP was tested, and the “shrunken log2 fold change” value was 0.0917. With RRIRDRPPRLPRPRPRPAFFPRP the “shrunken log2 fold change” value was 0.342. With RRIRARPPRLPRPRPRPPKYPRP the “shrunken log2 fold change” value was -0.109.
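Note: peptides expressed intracellularly from a pBAD plasmid library in pooled LB shake-flask culture, induced with 0.3% L-arabinose, DNA abundance read by NGS, three biological replicates, DESeq2 with apeglm shrinkage.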
